Variants at the floor of the assay were thinned out.
B1: TPR 5TU (parent)
chain: GGAUCUUCUCGAUCUAACAAAAAAGACAAAUCUGCCACAAAGCUUGAGAGCAUCUUCGGAUGCAGAGGCGGCAGCCUUCGGUGGCGCGAUAGCGCCAACGUUCUCAACUAUGACACGCAAAACGCGUGCUCCGUUGAAUGGAGUUUAUCAUG

Variants of: B1
Assay: polymerase ribozyme fitness, log enrichment relative to wild type (log ratio); higher = more active; in vitro selection for triplet polymerase activity
Outline: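 PCR was used to build mutant libraries for each subunit of a heterodimeric triplet polymerase ribozyme, which were then transcribed. A single in vitro selection round, in triplicate, used a frozen incubation at −7 °C and recovered extended constructs by gel excision, streptavidin beads and RT-PCR. Fitness is the logarithm of genotype enrichment relative to wild-type enrichment, averaged over replicates with inverse-variance weights. The logarithm is base 2, and after Illumina sequencing only genotypes with ≥10 input reads and ≥1 read per output were kept.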

Variant	polymerase ribozyme fitness (log ratio)
GGAUCUUCUCGAUCUAACAAAGAAGACAAAUCUGCCACAAAGCUUGAGAGCAUCUUCGGAUGCAGAGGCGGCAGCCUUCGGUGGUGCGAUAGCGCCAACGUUCUCAACUAUGACACGCAAAACGCGUGCUCCGUUGAAUGGAGUUUAUCAUG [A22G C85U]	-0.836
GGAUCUUCUCGAUCUAACAAAGAAGACAAAUCUGCCACAAAGCUUGAGAGCAUCUUCGGAUGCAGAGGCGGCAGCCUUCGGUGGGGCGAUAGCGCCAACGUUCUCAACUAUGACACGCAAAACGCGUGCUCCGUUGAAUGGAGUUUAUCAUG [A22G C85G]	-2.32
GGAUCUUCUCGAUCUAACAAAGAAGACAAAUCUGCCACAAAGCUUGAGAGCAUCUUCGGAUGCAGAGGCGGAAGCCUUCGGUGGCCAGAUAGCGCCAACGUUCUCAACUUUGACACGCAAAACGCGCGCUCAGUUGAAUGGAGUUGAUCAUG [A22G C72A G86C C87A A110U U127C C132A U146G]	≤ -4.2
GGAUCUUCUCGAUCUAACAAAGAAGACAAAUCUGCCACAAAGCUUGAGAGCAUUUUCGGAUGCAGAGGCGGCAGCCUUCGGUGGUGCGAUAGCGCCAACGUUCUCAACUAUGACAGGCAAAACGCGUGCUCCGUUGAAUGGAGUUUAUCAUG [A22G C54U C85U C116G]	1.12
GGAUCUUCUCGAUCUAACAAAGAAGACAAAUCUGCCACAAAGCUUGAGAGCAUCUUCGGAUGCAGAGGCGGCAGCCUUCGGUGGCGCGAUAGUGCCAACGUUCUCAACUAUGACACGCAAAACGCGUGCUCCGUUGAAUGGAGUUUAUCAUG [A22G C93U]	-0.637
GGAUCUUCUCGAUCUAACAAAGAAGACAAAUCUGCCACAAAGCUUGAGAGCAUCUUCGGAUGCAGAGGCGGCAGCCUUCGGUGGCGCGAUAGAGCCAACGUUCUCAACUAUGACACGCAAAACGCGUGCUCCGUUGAAUGGAGUUUAUCAUG [A22G C93A]	-1.55
GGAUCUUCUCGAUCUAACAAAGAAGACAAAUCUGCCACAAAGCUUGAGAGCAUUUACGGAUGCAGAGGCGGCAGCUUUCGGUGGCGCGAUAGCCCCAACGUUCUCAACUAUGACACGCAAAACGCGUGCUCCGUUGAAUGGAGUAUAUCAUG [A22G C54U U56A C76U G94C U145A]	-0.624
GGAUCUUCUCGAUCUAACAAAGAAGACAAAUCUGCCACAAAGCUUGAGAGCAUCUUCGGAUGCAGAGGCGGCAGCUUUCGGUGGCGCGAUAGCGCCAACGUUCUCAACUAUGACACGCAAAACGCGUGCUCCGUUGAAUGGAGUUUAUCAUG [A22G C76U]	0.868
GGAUCUUCUCGAUCUAACAAAGAAGACAAAUCUGCCACAAAGCUUGAGAGCAUCUUCGGAUGCAGAGGCGGGAGCCUUCGGUGGCGUGAUAGAGCCAAAGUUCUCAACUAUGACACGCAAAACGCGUGCUCCGUUGAAUGGAGUUUAUCAUG [A22G C72G C87U C93A C99A]	≤ -4.2
GGAUCUUCUCGAUCUAACAAAGAAGACAAAUCUGCCACAAACCUUGAGAGCCUCUUCAGAUGCAGAGUCGGCAGCCUUCGGUGGCGGGAUAGCGCCAACGUUCUCAACUAUGACACGCAAAACGCGUGCUCCGUUGAAUGGCGUUUAUCAUG [A22G G42C A52C G58A G68U C87G A142C]	≤ -4.2
GGAUCUUCUCGAUCUAACAAAGAAGACAAAUCUGCCACAAAGCUUGAGAGCAUCUUCGGAUGCAGAGGCGGCAGCCUUCGGUGGCGCGAUAGCGCCAACGUUCUCAACUAUGACACGCAAAACGCGUGCUCUGUUGAAUGGAGUUUAUCAUG [A22G C132U]	-0.512
GGAUCUUCUCGAUCUAACAAAGAAGACAAAUCUGCCACAAAGCUUGAGAGCAUCUUCGGAUGCAGAGGCGGCAGCCUUCGGUGGCGCGAUAGCGCCAACGUUCUCAACUAUGACACGCAAAACGCGUGCUCGGUUGAAUGGAGUUUAUCAUG [A22G C132G]	-3.69
GGAUCUUCUCGAUCUAACAAAGAAGACAAAUCUGCCACAAAGCUUGAGAGCAUCUUCGGAUGCAGAGGCGGCAGCCUUCGGUGGCGCGAUAGCGCUAACGUUCUCAACUAUGAUUCGCAAAACGCGUGCUCCGUUGAAUGGAGUUUAUCAUG [A22G C96U C114U A115U]	≤ -4.2
GGAUCUUCUCGAUCUAACAAAGAAGACAAAUCUGCCACAAAGCUUGAGAGCAUCUUCGGAUGCAGAGGCGGCAGCCUUCGGUGGUGCGAUAGCGGCAACGUUCUCAACUAUGACACGCAAAACGCGUGCUCCGUGGAAUGGAGUUUAUCAUG [A22G C85U C95G U135G]	-3.76
GGAUCUUCUCGAUCUAACAAAGAAGACAAAUCUGCCACAAAGCUUGAGAGCAUUUUCAAAUGCAGAGGCGGCAGCCUUCGGUGGCGCGAUAGCGCCAACGUUGUCAACUAUGACACGCAAAACGCGUGCUCCGUUGAAUGGAGUUUAUCAUG [A22G C54U G58A G59A C103G]	-1.91
GGAUCUUCUCGAUCUAACAAAGAAGACAAAUCUGCCACAAAGCUUGAGAGCAUCUUCGGAUGCAGAGGCGGCAGCCUUCGGUGGCGCGAUAGCGCCAACGUUCUCAAUUAUGACACGCAAAACGCGUGCUCCGUUGAAUGGAGUUUAUCAUG [A22G C108U]	-4.08
GGAUCUUCUCGAUCUAACAAAGAAGACAAAUCUGCCACAAAGCUUGAGAGCAUCUUAGCCUGCAGAGGCGGCAGCCUUCGGUGGCGCGAUAGCGCCAACGUUCUCAACUAUGACACGCAAAACGCGUGCUCCGUUGAAUGGAGUUUAUCAUG [A22G C57A G59C A60C]	-2.03
GGAUCUUCUCGAUCUAACAAAGAAGACAAAUCUGCCACAAAGCUUGAGAGCAUCUUCGGAUGCAGAGGCGGCAGCCUUCGGUGGGGCGAUAGCGCCAACGUUCUCAACUAUGACACGCAAAACGCGUGCUCCGUUGAAUGGAGUUUAUCGUG [A22G C85G A150G]	-3.09
GGAUCUUCUCGAUCUAACAAAGAAGACAAAUCUGCCACAAAGCUUGAGAGCAUCUUCGGAUGCAGAGGCGGCAGCCUUCGGUGGCGCGAUAGCGCCAACGUUCUCAAGUAUGACACGCAAAAGGCGUGCUCCGUUGAAUGGAGUUUAUCGUG [A22G C108G C123G A150G]	≤ -4.2

Reference: the RNAGym collection of RNA variant scans (doi:10.1073/pnas.2313332121)
